Laboratory results as given in publication PMC6825360, “Chaetomella raphigera β-glucosidase D2-BGL has intriguing structural features and a high substrate affinity that renders it an efficient cellulase supplement for lignocellulosic biomass hydrolysis” (Biotechnology for Biofuels, 2019).
Each block holds one molecule with its values, some of them ahead of it.

Columns and labels:
D2-BGL [1] = target: T1, D2-BGL (Chaetomella raphigera, UniProt A0A068FT77); assay: inhibition of pNPG hydrolysis at […] glucose, absorbance of pNP at […] nm, non-linear fit; type: biochemical; details: read-out: Ki glucose; substrate pNPG; pH 5 (50 mM sodium acetate), 55 °C; product inhibition
T1 construct: secreted recombinant from Pichia pastoris SMD1168 (pGAPZalphaC), His-tagged (strain #5 has an extra N-terminal 6-His), IMAC purified, N-hyperglycosylated, smear 95-180 kDa; TIM barrel 1-307, alpha/beta sandwich 319-521, FnIII 573-712
T1 sequence (A0A068FT77 1-722): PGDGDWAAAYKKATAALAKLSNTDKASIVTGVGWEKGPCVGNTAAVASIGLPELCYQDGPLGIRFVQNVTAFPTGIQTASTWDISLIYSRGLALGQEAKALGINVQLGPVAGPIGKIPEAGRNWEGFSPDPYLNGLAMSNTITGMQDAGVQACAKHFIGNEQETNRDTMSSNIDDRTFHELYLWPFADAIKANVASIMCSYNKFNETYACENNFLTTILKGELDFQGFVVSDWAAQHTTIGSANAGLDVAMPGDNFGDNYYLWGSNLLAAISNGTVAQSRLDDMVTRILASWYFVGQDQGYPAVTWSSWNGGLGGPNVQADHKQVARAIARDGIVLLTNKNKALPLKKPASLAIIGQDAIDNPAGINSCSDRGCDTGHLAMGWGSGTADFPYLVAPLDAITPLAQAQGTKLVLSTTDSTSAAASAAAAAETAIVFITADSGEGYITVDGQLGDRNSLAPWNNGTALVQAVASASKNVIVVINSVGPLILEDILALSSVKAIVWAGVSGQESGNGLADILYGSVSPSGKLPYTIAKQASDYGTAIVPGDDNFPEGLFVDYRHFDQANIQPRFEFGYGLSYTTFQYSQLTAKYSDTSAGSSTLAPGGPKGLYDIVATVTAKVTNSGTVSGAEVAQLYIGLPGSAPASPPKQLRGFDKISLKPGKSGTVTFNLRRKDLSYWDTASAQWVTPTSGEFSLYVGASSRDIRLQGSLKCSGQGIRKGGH

D2-BGL [2] = target: D2-BGL (Chaetomella raphigera, UniProt A0A068FT77, INS255S/N255I, form not given); assay: cellobiase assay, glucose release, crude secreted enzyme; type: biochemical; details: crude enzyme from P. pastoris culture; mutant N255* (N255 replaced by two residues I-S); wild type measured beside it 1.45 mM
[3] = cellobiase assay after non-denaturing deglycosylation; details: glycan lost; control: non-deglycosylated enzyme
[4] = productivity from culture supernatant activity, P. pastoris; details: glycan lost; control: wild type
[5] = specific activity of purified enzyme; details: glycan lost; control: wild type
purified protein = substrate: O=[N+]([O-])c1ccc(O[C@@H]2O[C@H](CO)[C@@H](O)[C@H](O)[C@H]2O)cc1; assay: purified protein; details: pH 5 (50 mM sodium acetate), 55 °C, 10 min

Ki (D2-BGL [1]): 2.42 ± 0.69 mM
Molecule: OC[C@H]1OC(O)[C@H](O)[C@@H](O)[C@@H]1O (stereo partly drawn) [glucose]

Km (D2-BGL [2]): 2840 µM
Molecule: OC[C@H]1O[C@@H](O[C@H]2[C@H](O)[C@@H](O)C(O)O[C@@H]2CO)[C@H](O)[C@@H](O)[C@@H]1O (stereo partly drawn) [cellobiose]

B1: β-glucosidase D2-BGL: Endo H (protein)
parent chain: PGDGDWAAAYKKATAALAKLSNTDKASIVTGVGWEKGPCVGNTAAVASIGLPELCYQDGPLGIRFVQNVTAFPTGIQTASTWDISLIYSRGLALGQEAKALGINVQLGPVAGPIGKIPEAGRNWEGFSPDPYLNGLAMSNTITGMQDAGVQACAKHFIGNEQETNRDTMSSNIDDRTFHELYLWPFADAIKANVASIMCSYNKFNETYACENNFLTTILKGELDFQGFVVSDWAAQHTTIGSANAGLDVAMPGDNFGDNYYLWGSNLLAAISNGTVAQSRLDDMVTRILASWYFVGQDQGYPAVTWSSWNGGLGGPNVQADHKQVARAIARDGIVLLTNKNKALPLKKPASLAIIGQDAIDNPAGINSCSDRGCDTGHLAMGWGSGTADFPYLVAPLDAITPLAQAQGTKLVLSTTDSTSAAASAAAAAETAIVFITADSGEGYITVDGQLGDRNSLAPWNNGTALVQAVASASKNVIVVINSVGPLILEDILALSSVKAIVWAGVSGQESGNGLADILYGSVSPSGKLPYTIAKQASDYGTAIVPGDDNFPEGLFVDYRHFDQANIQPRFEFGYGLSYTTFQYSQLTAKYSDTSAGSSTLAPGGPKGLYDIVATVTAKVTNSGTVSGAEVAQLYIGLPGSAPASPPKQLRGFDKISLKPGKSGTVTFNLRRKDLSYWDTASAQWVTPTSGEFSLYVGASSRDIRLQGSLKCSGQGIRKGGH
enzymatic_activity, other: specific activity [3]: no change, 185 ± 21 vs 209 ± 14

B2: β-glucosidase D2-BGL: N68Q (protein)
parent chain: PGDGDWAAAYKKATAALAKLSNTDKASIVTGVGWEKGPCVGNTAAVASIGLPELCYQDGPLGIRFVQNVTAFPTGIQTASTWDISLIYSRGLALGQEAKALGINVQLGPVAGPIGKIPEAGRNWEGFSPDPYLNGLAMSNTITGMQDAGVQACAKHFIGNEQETNRDTMSSNIDDRTFHELYLWPFADAIKANVASIMCSYNKFNETYACENNFLTTILKGELDFQGFVVSDWAAQHTTIGSANAGLDVAMPGDNFGDNYYLWGSNLLAAISNGTVAQSRLDDMVTRILASWYFVGQDQGYPAVTWSSWNGGLGGPNVQADHKQVARAIARDGIVLLTNKNKALPLKKPASLAIIGQDAIDNPAGINSCSDRGCDTGHLAMGWGSGTADFPYLVAPLDAITPLAQAQGTKLVLSTTDSTSAAASAAAAAETAIVFITADSGEGYITVDGQLGDRNSLAPWNNGTALVQAVASASKNVIVVINSVGPLILEDILALSSVKAIVWAGVSGQESGNGLADILYGSVSPSGKLPYTIAKQASDYGTAIVPGDDNFPEGLFVDYRHFDQANIQPRFEFGYGLSYTTFQYSQLTAKYSDTSAGSSTLAPGGPKGLYDIVATVTAKVTNSGTVSGAEVAQLYIGLPGSAPASPPKQLRGFDKISLKPGKSGTVTFNLRRKDLSYWDTASAQWVTPTSGEFSLYVGASSRDIRLQGSLKCSGQGIRKGGH
expression_or_secretion, other: productivity [4]: decreases, 4.5 vs 9.6, N68Q mutant (0.98 ± 0.22 U/mL) ... relative to that of wild-type (1.89 ± 0.18 U/mL)
enzymatic_activity, other: specific activity [5]: no change, 216 ± 23 vs 197 ± 3

B3: D2-BGL (Chaetomella raphigera) (protein)
chain: PGDGDWAAAYKKATAALAKLSNTDKASIVTGVGWEKGPCVGNTAAVASIGLPELCYQDGPLGIRFVQNVTAFPTGIQTASTWDISLIYSRGLALGQEAKALGINVQLGPVAGPIGKIPEAGRNWEGFSPDPYLNGLAMSNTITGMQDAGVQACAKHFIGNEQETNRDTMSSNIDDRTFHELYLWPFADAIKANVASIMCSYNKFNETYACENNFLTTILKGELDFQGFVVSDWAAQHTTIGSANAGLDVAMPGDNFGDNYYLWGSNLLAAISNGTVAQSRLDDMVTRILASWYFVGQDQGYPAVTWSSWNGGLGGPNVQADHKQVARAIARDGIVLLTNKNKALPLKKPASLAIIGQDAIDNPAGINSCSDRGCDTGHLAMGWGSGTADFPYLVAPLDAITPLAQAQGTKLVLSTTDSTSAAASAAAAAETAIVFITADSGEGYITVDGQLGDRNSLAPWNNGTALVQAVASASKNVIVVINSVGPLILEDILALSSVKAIVWAGVSGQESGNGLADILYGSVSPSGKLPYTIAKQASDYGTAIVPGDDNFPEGLFVDYRHFDQANIQPRFEFGYGLSYTTFQYSQLTAKYSDTSAGSSTLAPGGPKGLYDIVATVTAKVTNSGTVSGAEVAQLYIGLPGSAPASPPKQLRGFDKISLKPGKSGTVTFNLRRKDLSYWDTASAQWVTPTSGEFSLYVGASSRDIRLQGSLKCSGQGIRKGGH
Km (purified protein): 200 ± 100 µM
Vmax (purified protein): 419 µmol/min/mg

B4: β-glucosidase D2-BGL: T431A (protein)
parent chain: PGDGDWAAAYKKATAALAKLSNTDKASIVTGVGWEKGPCVGNTAAVASIGLPELCYQDGPLGIRFVQNVTAFPTGIQTASTWDISLIYSRGLALGQEAKALGINVQLGPVAGPIGKIPEAGRNWEGFSPDPYLNGLAMSNTITGMQDAGVQACAKHFIGNEQETNRDTMSSNIDDRTFHELYLWPFADAIKANVASIMCSYNKFNETYACENNFLTTILKGELDFQGFVVSDWAAQHTTIGSANAGLDVAMPGDNFGDNYYLWGSNLLAAISNGTVAQSRLDDMVTRILASWYFVGQDQGYPAVTWSSWNGGLGGPNVQADHKQVARAIARDGIVLLTNKNKALPLKKPASLAIIGQDAIDNPAGINSCSDRGCDTGHLAMGWGSGTADFPYLVAPLDAITPLAQAQGTKLVLSTTDSTSAAASAAAAAETAIVFITADSGEGYITVDGQLGDRNSLAPWNNGTALVQAVASASKNVIVVINSVGPLILEDILALSSVKAIVWAGVSGQESGNGLADILYGSVSPSGKLPYTIAKQASDYGTAIVPGDDNFPEGLFVDYRHFDQANIQPRFEFGYGLSYTTFQYSQLTAKYSDTSAGSSTLAPGGPKGLYDIVATVTAKVTNSGTVSGAEVAQLYIGLPGSAPASPPKQLRGFDKISLKPGKSGTVTFNLRRKDLSYWDTASAQWVTPTSGEFSLYVGASSRDIRLQGSLKCSGQGIRKGGH
expression_or_secretion, other: productivity [4]: decreases, 3.2 vs 9.6, T431A mutant (0.61 ± 0.05 U/mL)
enzymatic_activity, other: specific activity [5]: no change, 189 ± 11 vs 197 ± 3
